Experimental data as given in the supplement of paper PMC7877785.
± gives the uncertainty stated by the source.

Test: self-splicing fitness, log relative to wild type (ln ratio); higher = more splicing; Tetrahymena group I intron in knt gene, E. coli kanamycin selection, DiMSum; sequences stand for … in CUCUCU…GGAGGGAAAAGUUAUCAGGCAUGCACCUGGUAGCUAGUCUUUAAACCAAUAGAUUGCAUCGGUUUAAAAGGCAAGACCGUCAAAUUGCGGGAAAGGGGUCAACAGCCGUUCAGUACCAAGUCUCAGGGGAAACUUUGAGAUGGCCUUGCAAAGGGUAUGGUAAUAAGCUGACGGACAUGGUCCUAACCACGCAGCCAAGUCCUAAGUCAACAGAUCUUCUGUUGAUAUGGAUGCAGUUCACAGACUAAAUGUCGGUCGGGGAAGAUGUAUUCUUCUCAUAAGAUAUAGUCGGACCUCUCCUUAAUGGGAGCUAGCGGAUGAAGUGAUGCAACACUGGAGCCGCUGGGAACUAAUUUGUAUGCGAAAGUAUAUUGAUUAGUUUUGGAGUACUCGUGGUCG
Procedure, shortened: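 Fitness was computed with DiMSum as the error-weighted combination of replicate fold changes, kanamycin versus none, each normalised to wild type. The library randomised all eight intron nucleotides of the P1ex region, with the intron placed in the knt kanamycin-resistance gene on pET-22b(+) in E. coli BL21(DE3). Six replicate transformations were grown overnight at 37°C or 30°C on LB agar with or without 25 μg/mL kanamycin, plus 100 μg/mL carbenicillin, 50 μM IPTG and 0.2% rhamnose. Pooled colonies were amplicon-sequenced on an Illumina HiSeq 2500.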

Sequence	self-splicing fitness (ln) (30 °C)	self-splicing fitness (ln) (37 °C)
GGUUAGCAAUAUUACGAUCA	-0.0432 ± 0.15	-0.342 ± 0.13
ACUGAGCAAUAUUACGACCC	–	-0.357 ± 0.33
UGGGAGCAAUAUUACGGUUC	–	-0.762 ± 0.44
UUUAAGCAAUAUUACGGUUU	-2.53 ± 0.28	-1.51 ± 0.22
UUAUAGCAAUAUUACGGAUG	-2.85 ± 0.16	-1.09 ± 0.15
GCGUAGCAAUAUUACGGACC	-2.2 ± 0.24	-2.35 ± 0.35
UAAAAGCAAUAUUACGCGGG	-2.62 ± 0.1	-1.43 ± 0.12
UUACAGCAAUAUUACGUGUC	-3.93 ± 0.17	-3.21 ± 0.21
CAGUAGCAAUAUUACGUGCC	-3.68 ± 0.35	-1.93 ± 0.27
CGUAAGCAAUAUUACGAAAU	-3.16 ± 0.27	-1.86 ± 0.25
UUGUAGCAAUAUUACGUGGA	-2.15 ± 0.15	-0.844 ± 0.12
CUAGAGCAAUAUUACGUUAA	-3.73 ± 0.24	-1.89 ± 0.28
AGAGAGCAAUAUUACGUUCC	-1.63 ± 0.18	-3.14 ± 0.47
CGCUAGCAAUAUUACGUUCU	-2.16 ± 0.11	-1.67 ± 0.12
CCUUAGCAAUAUUACGUAAU	-3.24 ± 0.29	-1.81 ± 0.16
GGGUAGCAAUAUUACGGCAU	-0.0241 ± 0.076	-0.23 ± 0.096
CUGUAGCAAUAUUACGUCUC	-4.07 ± 0.39	–
CAUCAGCAAUAUUACGCAUU	-1.36 ± 0.079	-0.544 ± 0.1
UACGAGCAAUAUUACGACUA	-0.65 ± 0.085	-0.167 ± 0.1
ACCCAGCAAUAUUACGCAAC	-2.62 ± 0.12	-0.73 ± 0.11
GUGCAGCAAUAUUACGCACG	-2.88 ± 0.38	-2.85 ± 0.45

Sequence	self-splicing fitness (ln) (30 °C)	self-splicing fitness (ln) (37 °C)
GCGCAGCAAUAUUACGGUGC	-4.08 ± 0.25	-2.13 ± 0.32
AAUCAGCAAUAUUACGAGCG	-0.582 ± 0.063	-0.11 ± 0.079
CGCAAGCAAUAUUACGUUCU	-1.53 ± 0.076	-1.33 ± 0.087
CUGUAGCAAUAUUACGAUUA	-2.74 ± 0.33	-1.24 ± 0.4
CGAGAGCAAUAUUACGGUAA	-1.51 ± 0.25	-2.55 ± 0.28
CGUGAGCAAUAUUACGCGAG	-1.12 ± 0.21	–
GGACAGCAAUAUUACGAUGA	-1.08 ± 0.15	-1.65 ± 0.14
CCAUAGCAAUAUUACGGAGC	–	-2.74 ± 0.31
UCCAAGCAAUAUUACGGGGG	-3.91 ± 0.2	-3.41 ± 0.24
ACCGAGCAAUAUUACGAAUC	-4.8 ± 0.42	-2.61 ± 0.32
GCCUAGCAAUAUUACGGUAU	-0.978 ± 0.07	-0.02 ± 0.08
CCGCAGCAAUAUUACGUGGU	-3.29 ± 0.13	-2.25 ± 0.13
UGGCAGCAAUAUUACGUACG	-0.616 ± 0.077	-0.265 ± 0.12
CCUCAGCAAUAUUACGACCC	-2.75 ± 0.38	-2.41 ± 0.49
GAUUAGCAAUAUUACGUUCA	-0.941 ± 0.084	-0.497 ± 0.088
UACCAGCAAUAUUACGAGUA	-1.25 ± 0.085	-1.69 ± 0.08
ACCGAGCAAUAUUACGUUGC	-3.29 ± 0.32	-1.33 ± 0.25
CUCCAGCAAUAUUACGAGAC	-4.42 ± 0.46	-3.28 ± 0.37
GAUAAGCAAUAUUACGUCCU	-0.907 ± 0.14	-0.0126 ± 0.19
UUGUAGCAAUAUUACGGCGU	-1.2 ± 0.1	-0.999 ± 0.12
GCCUAGCAAUAUUACGUAAA	-1.1 ± 0.076	-0.594 ± 0.093

Sequence	self-splicing fitness (ln) (30 °C)	self-splicing fitness (ln) (37 °C)
CCCCAGCAAUAUUACGGCAA	-3.17 ± 0.15	-3.06 ± 0.2
GAUAAGCAAUAUUACGACGU	-0.187 ± 0.076	0.339 ± 0.091
AAUGAGCAAUAUUACGCGAG	-2.49 ± 0.16	-1.46 ± 0.14
AGCUAGCAAUAUUACGCUUA	-1.8 ± 0.19	-2.01 ± 0.19
UGUAAGCAAUAUUACGGAUA	-1.38 ± 0.11	-1.27 ± 0.12
GCCUAGCAAUAUUACGAUCC	-1.08 ± 0.093	0.0207 ± 0.13
GGGAAGCAAUAUUACGGUGU	-2.2 ± 0.1	-0.483 ± 0.13
GGCCAGCAAUAUUACGGGGG	-3.54 ± 0.18	-1.85 ± 0.17
UAAUAGCAAUAUUACGGUAG	-3.43 ± 0.14	-2.05 ± 0.14
CAAAAGCAAUAUUACGCGUA	-2.01 ± 0.12	-1.32 ± 0.11
CGAAAGCAAUAUUACGGCUU	-4.2 ± 0.22	-2.79 ± 0.3
GCCGAGCAAUAUUACGGCGU	-2.55 ± 0.13	-0.897 ± 0.1
CCUCAGCAAUAUUACGAAUC	-3.45 ± 0.28	-2.82 ± 0.31
AAAAAGCAAUAUUACGCCGU	-0.957 ± 0.064	-0.392 ± 0.072
GUCCAGCAAUAUUACGCAUG	-2.14 ± 0.079	-1.66 ± 0.082
AUGUAGCAAUAUUACGGCCU	0.449 ± 0.097	0.248 ± 0.12
GGACAGCAAUAUUACGCGCU	-1.92 ± 0.22	-1.36 ± 0.34
GGCCAGCAAUAUUACGCGAA	-0.824 ± 0.12	-1.41 ± 0.14
GUGCAGCAAUAUUACGACUA	-0.908 ± 0.24	-0.48 ± 0.26
